Data taken from the nanobody polyreactivity screen of Harvey et al. (2022).

Assay: yeast display, Sf9 membrane polyspecificity reagent, FACS + sequencing; frameworks hold sequencing errors
Method in brief: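 Polyreactivity labels are assigned by the sorting gate from which each nanobody was recovered. The gates were low and high (top ~1%), set on anti-HA fluorescence for expression and streptavidin fluorescence for reagent binding. Before sorting, galactose-induced (36–48 hours) yeast display cells were stained for 1 hour at 4 °C with 10% biotinylated, detergent-solubilized Sf9 membrane reagent.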

QVQLVESGGGLVQAGGSLRLSCAASGFTLYYYTMGWYRQAPGKERELVASITGGGTTNYADSVKGRFTISRDNAKNTVYLQMNSLKPEDTAVYYCAKGYGASNDPGYVRKRYGYWGQGTQVTVSS
polyreactivity (PSR sort gate): low polyreactivity

QVQLVESGGGLVQAGGSLRLSCAASGSTFQYYAMGWYRQAPGKERELVAAISYGGSRTYYADSVKGRFTISRDNAKNNVYLQMNSLKPEDTAVYYCAKVKYRALAPYYYWGQGTQVTVSS
polyreactivity (PSR sort gate): high polyreactivity

QVQLVESGRGLVQAGGSLRLSCASSGRIFRYYDMGWYRQAPGKERDFVAAITRSGAITYYADSVKGRFTISRDNAKNTVYLQMNSLKPEDTAVYYCNADFQDRTYDYDYWGQGTQVTVSS
polyreactivity (PSR sort gate): low polyreactivity

QVQLVESGGGLVQAGGSLRLSFAASGRTFGRYAMGWYRPATGKERELVATISSRGGNTYYADSVKGRFTISRDNAQKTVYLEMNSLKAEDTAVYYCAAQTYKWYDWGQGTQVTVSS
polyreactivity (PSR sort gate): high polyreactivity

QVQLVESGGGLVQAGGSLRLSCAASGFTIVYYSMGWYRQAPGKERELVATISSGGGTNYADSVKGRFTISRDNAKNTVYLQMNSLTPEDTAVYYCAAEYYTGYFKYDYWGQGTQVTVSS
polyreactivity (PSR sort gate): high polyreactivity

QVQLVESGGGLVQAGGSLRLSCAASGFTFKYYAMGWYRQAPGKERELVASISWDGTRTYYADSVKGRFTISRDNAKNTVYLQMNSLKPEDTAVYDGAAVFLDYRTYSYGYWGQGTQVTVSS
polyreactivity (PSR sort gate): high polyreactivity

QVQLVESGGGLVQAGGSLRLSCAASGIFFLYMGWYRQAPGKERELVAAISDSGGTTYYADSVKGRFTISRDNAKNTVYLQMNSLKPEDTAVYYCAAEIENLNWFYWDYLEYDYWGQGTQVTVSS
polyreactivity (PSR sort gate): low polyreactivity

QVQLVESGGGLVQAGGSLRLICAASGSTIVWNAMGWYRQAPGKERELVATITLSTGSTYYADSVKGRFTISRDNAKNTVYLQMNSLKPEDTAVYYCNTEIYVDIISVYGYWGQGTQVTVSS
polyreactivity (PSR sort gate): low polyreactivity

QVQLVESGGGLVQAGGSLRLSCAASGRIFIPNTMGWYIQAPGKERELVAAITWSGSSTYYADSVKGRFTISRDNAKNTVYLQMNSLKPEDTAVYYCAAYPSCYVVVSKGDYWGQGTQVTVSS
polyreactivity (PSR sort gate): high polyreactivity

QVQLVESAGGLVQAGGSLRLSCAASGFIFPRYAMGWYRPAPGKERELVAAISSSGGSTYYADSVKGRFTISRDNAKNTVYLQMNSLKPEDTAVYYCAARYQSDYWRYYYWGQGTQVTVSS
polyreactivity (PSR sort gate): high polyreactivity

QVQLVESGGGLVQAGGSLRLSCAASGSIFRVYAMGWYRQAPGKERELVAAITRGGSTYADSVKGRFTISRDNAKNTVYLQMNSLKPEDTAVYYCAARVSYWGQGTQVTVSS
polyreactivity (PSR sort gate): high polyreactivity

QVQRVESGGGLVQAGGSLRLSCAASGSTFIGYDMRWYRQAPGTERELVAAISYSDGTYYADSVKGRFTISRDNAKNTVYLQMNSLKPADTAVYYCAADSLYYRYDYWGQGPQVTVSS
polyreactivity (PSR sort gate): low polyreactivity

QVQLVESGGGLVQAGGSLRLSCAASGRTFNVNAMGWYRQAPGKERELVAAISSSGTTNYADSVKGRFTISRDNAKNTVYLQMNSLKPEDTAVYYCNKRWRDKYPQYDYWGQGTQVTVSS
polyreactivity (PSR sort gate): low polyreactivity

QVQLVESGGGLVQAGGSLRLSCDASGSIFFSYAMGWYRQAPGTEREFVAAINSDDASTYADSVKGRFTISRDNAKNTVYLQMNSLKPEDTAVYYCADSFLWSWYDYWGQGTQVTVSS
polyreactivity (PSR sort gate): low polyreactivity

QVQLVDSGGGLVQAGGSLRLSCAASGRTFTRNAMGWYRPATRQERELLAAISFTGGRTYYADSVKGRFTISRDNAKNTVYLQMNSLNPEDTAVYYCNTTSRRSQVGYSTRYDYWGQGTQVTVSS
polyreactivity (PSR sort gate): high polyreactivity

QVQLVESGGGLVQAGGSLRLSCAASGRISQIYARGWYRQAPGKERELVASISSSGSRTYYADSVKGRFTISRDHAKNTVYLQMNSLKPEDTAVYYCAATYLKVHGEYDYWGQGTQVTVSS
polyreactivity (PSR sort gate): high polyreactivity

QVHLVESGGGLVQAGGSLRLSCAASGSILVWYAMGWYRHAPGKERELVAAISQSGGRTYYADSVKGRFTISRDNAKNNVYLQMNSLKPEDTAVYYGAAFYTSYWGYDYDYWGQGTQVTVSS
polyreactivity (PSR sort gate): low polyreactivity

QVQLVESGGGLVQAGGSLRLSCAASGRTFNPNAMGWYRQAPGKERELVAAISSSGGSTYYADSVKGRFTISRDNAKNTVYLQMNSLKPEDTAVYYCAAVHKWYLYYYWGQGTQVTVSS
polyreactivity (PSR sort gate): high polyreactivity

QVQLVESGGGLVQAGGSLRLSCAASGSIFARYTMGWYRQAPGKERELVAAISSSGTSTYYADSVKGRFTISRDNAKNTVYLQMNSLKPEDTAVYYCAADWYYHYGYWGQGTQVTVSS
polyreactivity (PSR sort gate): high polyreactivity

QVQLVESGGCLVQAGGRLRLSSAASGGTFTFYAMGWYRQAPGKERELVATINWSGGSTYYADSVKGRFTISRDNAKNTVYLQMNSLKPEDTAVYYCNAAWPYKSVEYWGQGTQVTVSS
polyreactivity (PSR sort gate): low polyreactivity

QVQLVESGGGLVQAGGSLRLSCAASGSTINKYAMGWYRQAPGKERELVAAISRSGGSTNYADSVKGRFTISRDNAKNTVYLQMNSLKPEDTAVYYCNAGYGRWQRHDYWGQGTQVTVSS
polyreactivity (PSR sort gate): high polyreactivity

QVQLVESGGALLQAGGSLRLSCSASGRIFSANAMGWYRPAPGKERELVAAITYSGATTYYADSVKGRFTISRDNAKNTVYLQMTSLKPEDTAVYDCAADAGYTHYTAEEEYWGQGTQVTVSS
polyreactivity (PSR sort gate): low polyreactivity

QVQLVESGGGLVQAGGSLRLSCAASGIIFIIYTMGWYRQSPGKERELVAAISWSGGSTYYADSVKGRFTISRDNAKNTVYLQMNSLKPEDTAVYYCAADVANWYGGGNSDYDHEYWGQGPQVTVSS
polyreactivity (PSR sort gate): low polyreactivity

QVQLVESGGGLVQAGGSLRLSCAASGSTFIFYVMVWYRQAPGKERELVASITGNGTSTYYADSVKGRFTISRDNAKNTVYLQMNSLKPEDSAVYYCNAVFSPSRYDYWGQGTQVTVSS
polyreactivity (PSR sort gate): low polyreactivity

QVQLVESGGGLVQAGGSLRLSCAASGFTFVGNAMGWYRQAPGQERELVAAITRGGSTYYADSVKGRFTISRDNAKNTVYLQMNSLKPEDTAVYYCNAELPVHWSWYDYWGQGTQVNVSS
polyreactivity (PSR sort gate): low polyreactivity

QFQLLESGGGLVQAGGSLRLSCADSGSIYLYYARGWYRQAPGKESELVAAITYSGVSTYDAVSVKGRFTISRDTSNNTVYLQMNSLKPEDNAFYDCARRWNAFGSKGVYWGQGTQVTVSS
polyreactivity (PSR sort gate): high polyreactivity

QVQLVESGGGLVQAGGSLRLSCAASGSTFGKYAMGWYRQAPGKERELVASISRSGASTYYADSVKGRFTISRDNAKNTVYLQMNSLKPEDTAVYYCNKARNPEGYWRYDYWGQGTQVTVSS
polyreactivity (PSR sort gate): high polyreactivity

QVQLVESGGGLVQAGGSLRLSCAASGFILRQNVMGWYRQAPGKERELVAAISRSGGRTYYADSVKGRFTISRDNAMNTVYFQMNSLKPEDTAVDYCNAGRYNYTDDYWGQGTQVTVSS
polyreactivity (PSR sort gate): high polyreactivity

QVQLEESGGGLVQAGASLRLSCAASGNIFPRNAMGWYRQAPGKERELVAAISASGDNTYYADSVKGRFTISRDNAKNTVYLQMNSLKPEDTEVYYCAAATFYESIQPYESVAYDYWGQGTQVTVSS
polyreactivity (PSR sort gate): low polyreactivity

QLQLVESRPGLVPAGGSLRLSCAPSGSTFSYYAMGRYRQAPGKERELDAAISKSGGSTYYADSVKGRFTISRDNAINTVFLQMNSLKPYDTAFYYCSTRSRDPYSVSYRLDYWGQGTQVTVSS
polyreactivity (PSR sort gate): low polyreactivity

QVHLEESGGGLVQAGGSLRLSCAASGRTFYANTMGWYRPAPGKERELVAGITSGGSTSYADSVKGRFTISRDNAKNTVYLQMNSLKPEDTAVYYCAAQFYRYTATGYYADGYWGQGTQVTVSS
polyreactivity (PSR sort gate): low polyreactivity

QVQLVESGGGLVQAGGSHRLSCAASGSTFAYYAMGWYRQAPGKERELVATISERGGTTYYADSVKGRFTLSRDNAKNTVYFQMNILKPEVTAVYYCAADHSGYWTYYYDYYYWGQGTQVNVSS
polyreactivity (PSR sort gate): low polyreactivity

QVQLVESGGGLVHAGGSLRLSCAASGSIFTGYAMGWYRQAPGKERELVAAIDYRSGSTYYADSVKGRFTISRDNAKNTVYLQMNSLKPEDTAVYYCAAPAGWGFDEAFGYGYWGQGTQVTVSS
polyreactivity (PSR sort gate): low polyreactivity

QVQLVESGGGLVQAGGSLRLSCAASGSTFGYYTMGWYRQAPGKERELVASIDVSGDSTSYADSVKGRLTISRDNAKNTVYLQMNSLKPEDTAVYYCNTGRYPTSPTHNYWGQGTQVTVSS
polyreactivity (PSR sort gate): low polyreactivity

QVQLVESGGGLVQAGGSLRLSCAASGNTFQYYAMGWYRQAPGKEREFVAAISRRGGSTYYADSVKGRFTISRDNAKNTVYLQMNSLKPEDTAVYYCNKVIFLSQSSYSFHYAYDYWGQGTQVTVSS
polyreactivity (PSR sort gate): high polyreactivity

QVQLVESGGGLVQAGGSLRLSCAPSGFIFYGYAMGWYRPAPGKERELVAAISRRGGSTYYADSVKGRFTISRDDAKNSVYLQMNSLKPEDTAVYYCAATYEVNYRKYGYWGQGTQVTVSS
polyreactivity (PSR sort gate): high polyreactivity

QVQLVESGGGLVQAGGSLRLSCAASGSIFQSYAKGWYRQAPGKERELVAAISRGGSTYYADSVKGRFTISRDNAKNTVYLQMNSLKPEDTAVYYCAAGSGGGKYLYYYWGQGTQVTVSS
polyreactivity (PSR sort gate): low polyreactivity

QVQLVESGGGLVQAGGSLRLSCAASGGTFSGYTMGWYRQAPGKEWELVAAITRSGSSTYYADSVKGRFTISRDNAKNTVYLQMNSLKPEDTAVYYGAATYGSGVYKYDYWGQGTQVTVSS
polyreactivity (PSR sort gate): high polyreactivity

QVQLVESGGGLVQAGGSLRLSCAASGLTFSSYTMGWYRQAPGKERELVAAISSGGSTYYADSVKGRFTISRDNAKNTVYLQMNSLKPEDTAVYYCAAAFRYTPLSDHGYWGQGTQVTVSS
polyreactivity (PSR sort gate): high polyreactivity

QVQLVESGGGLVQAGGSLRLSCAASGLIIAHYAMGWYRQAPVKERELVAAITSGSSTYYADSVKGRFTISRDNAKNNVYLQMNSLKPEDTAVYYCAAKETHSAYRSSGNYWGQGTQVTVSS
polyreactivity (PSR sort gate): low polyreactivity

QVQLVESGGGLVQAGGSLRLSCAASGSTLVIYAMGWYRQAPVKEREFVAAIRCSPGRTYYADSVKGRFTISRDNAKNSVYLQMNSLKPEDTAVYYCAVEYQSWKGWWFDYWGQGTQLTVSS
polyreactivity (PSR sort gate): high polyreactivity

QVQLVESGGGLVQAGGSLRLSCAASGRIFDVYAMGWYRQAHGKERELVARISDGGGSTYYADSVKGRFTISRDNAKNTVYLQMNSLKPEDTAVYYCASGGDLRLDRRFAFVSRGDYWGQGTQVTVSS
polyreactivity (PSR sort gate): low polyreactivity

QVQLVESGGGLVQAGGSLRLSCAASGSIFTWYAMGWYRQAPGKERELVAAISEDGGSTYYADSVKGRFTISRDNAKNTVYLQMNSLKPEDTAVFYCATPVASVTGYDYWGQGTQVTVSS
polyreactivity (PSR sort gate): low polyreactivity
